T1: TNFR1 (Homo sapiens, UniProt P19438)
T1 chain: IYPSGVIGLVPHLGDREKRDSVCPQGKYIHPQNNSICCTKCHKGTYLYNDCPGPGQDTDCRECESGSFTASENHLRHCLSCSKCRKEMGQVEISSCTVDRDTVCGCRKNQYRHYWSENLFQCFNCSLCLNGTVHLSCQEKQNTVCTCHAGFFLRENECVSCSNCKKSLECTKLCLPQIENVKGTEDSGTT

B1: D59Q (designed binder)
chain: MTLQELLREEALRRAEAEAFRYALELLAEKFPEQKEYLLDLAEEIESQIRSLSGVDVEQVRKFLDKEWAWVKELLAEHPAELAEVEAARAARLAELRAEVEAKVAA
B2: G54E (designed binder)
chain: MTLQELLREEALRRAEAEAFRYALELLAEKFPEQKEYLLDLAEEIESQIRSLSEVDVEDVRKFLDKEWAWVKELLAEHPAELAEVEAARAARLAELRAEVEAKVAA
B3: E73S (designed binder)
chain: MTLQELLREEALRRAEAEAFRYALELLAEKFPEQKEYLLDLAEEIESQIRSLSGVDVEDVRKFLDKEWAWVKSLLAEHPAELAEVEAARAARLAELRAEVEAKVAA
B4: A19P (designed binder)
chain: MTLQELLREEALRRAEAEPFRYALELLAEKFPEQKEYLLDLAEEIESQIRSLSGVDVEDVRKFLDKEWAWVKELLAEHPAELAEVEAARAARLAELRAEVEAKVAA
B5: E10C (designed binder)
chain: MTLQELLRECALRRAEAEAFRYALELLAEKFPEQKEYLLDLAEEIESQIRSLSGVDVEDVRKFLDKEWAWVKELLAEHPAELAEVEAARAARLAELRAEVEAKVAA
B6: D40A (designed binder)
chain: MTLQELLREEALRRAEAEAFRYALELLAEKFPEQKEYLLALAEEIESQIRSLSGVDVEDVRKFLDKEWAWVKELLAEHPAELAEVEAARAARLAELRAEVEAKVAA
B7: D65T (designed binder)
chain: MTLQELLREEALRRAEAEAFRYALELLAEKFPEQKEYLLDLAEEIESQIRSLSGVDVEDVRKFLTKEWAWVKELLAEHPAELAEVEAARAARLAELRAEVEAKVAA
B8: E67I (designed binder)
chain: MTLQELLREEALRRAEAEAFRYALELLAEKFPEQKEYLLDLAEEIESQIRSLSGVDVEDVRKFLDKIWAWVKELLAEHPAELAEVEAARAARLAELRAEVEAKVAA
B9: L24C (designed binder)
chain: MTLQELLREEALRRAEAEAFRYACELLAEKFPEQKEYLLDLAEEIESQIRSLSGVDVEDVRKFLDKEWAWVKELLAEHPAELAEVEAARAARLAELRAEVEAKVAA
B10: D56Y (designed binder)
chain: MTLQELLREEALRRAEAEAFRYALELLAEKFPEQKEYLLDLAEEIESQIRSLSGVYVEDVRKFLDKEWAWVKELLAEHPAELAEVEAARAARLAELRAEVEAKVAA
B11: D59C (designed binder)
chain: MTLQELLREEALRRAEAEAFRYALELLAEKFPEQKEYLLDLAEEIESQIRSLSGVDVECVRKFLDKEWAWVKELLAEHPAELAEVEAARAARLAELRAEVEAKVAA
B12: A105C (designed binder)
chain: MTLQELLREEALRRAEAEAFRYALELLAEKFPEQKEYLLDLAEEIESQIRSLSGVDVEDVRKFLDKEWAWVKELLAEHPAELAEVEAARAARLAELRAEVEAKVCA
B13: L3D (designed binder)
chain: MTDQELLREEALRRAEAEAFRYALELLAEKFPEQKEYLLDLAEEIESQIRSLSGVDVEDVRKFLDKEWAWVKELLAEHPAELAEVEAARAARLAELRAEVEAKVAA
B14: V57T (designed binder)
chain: MTLQELLREEALRRAEAEAFRYALELLAEKFPEQKEYLLDLAEEIESQIRSLSGVDTEDVRKFLDKEWAWVKELLAEHPAELAEVEAARAARLAELRAEVEAKVAA
B15: A98C (designed binder)
chain: MTLQELLREEALRRAEAEAFRYALELLAEKFPEQKEYLLDLAEEIESQIRSLSGVDVEDVRKFLDKEWAWVKELLAEHPAELAEVEAARAARLAELRCEVEAKVAA
B16: A91N (designed binder)
chain: MTLQELLREEALRRAEAEAFRYALELLAEKFPEQKEYLLDLAEEIESQIRSLSGVDVEDVRKFLDKEWAWVKELLAEHPAELAEVEAARANRLAELRAEVEAKVAA
B17: E67A (designed binder)
chain: MTLQELLREEALRRAEAEAFRYALELLAEKFPEQKEYLLDLAEEIESQIRSLSGVDVEDVRKFLDKAWAWVKELLAEHPAELAEVEAARAARLAELRAEVEAKVAA
B18: D56I (designed binder)
chain: MTLQELLREEALRRAEAEAFRYALELLAEKFPEQKEYLLDLAEEIESQIRSLSGVIVEDVRKFLDKEWAWVKELLAEHPAELAEVEAARAARLAELRAEVEAKVAA
B19: W68Q (designed binder)
chain: MTLQELLREEALRRAEAEAFRYALELLAEKFPEQKEYLLDLAEEIESQIRSLSGVDVEDVRKFLDKEQAWVKELLAEHPAELAEVEAARAARLAELRAEVEAKVAA
B20: L74S (designed binder)
chain: MTLQELLREEALRRAEAEAFRYALELLAEKFPEQKEYLLDLAEEIESQIRSLSGVDVEDVRKFLDKEWAWVKESLAEHPAELAEVEAARAARLAELRAEVEAKVAA
B21: M1H (designed binder)
chain: HTLQELLREEALRRAEAEAFRYALELLAEKFPEQKEYLLDLAEEIESQIRSLSGVDVEDVRKFLDKEWAWVKELLAEHPAELAEVEAARAARLAELRAEVEAKVAA
B22: A90D (designed binder)
chain: MTLQELLREEALRRAEAEAFRYALELLAEKFPEQKEYLLDLAEEIESQIRSLSGVDVEDVRKFLDKEWAWVKELLAEHPAELAEVEAARDARLAELRAEVEAKVAA
B23: A11C (designed binder)
chain: MTLQELLREECLRRAEAEAFRYALELLAEKFPEQKEYLLDLAEEIESQIRSLSGVDVEDVRKFLDKEWAWVKELLAEHPAELAEVEAARAARLAELRAEVEAKVAA
B24: L39T (designed binder)
chain: MTLQELLREEALRRAEAEAFRYALELLAEKFPEQKEYLTDLAEEIESQIRSLSGVDVEDVRKFLDKEWAWVKELLAEHPAELAEVEAARAARLAELRAEVEAKVAA
B25: V55R (designed binder)
chain: MTLQELLREEALRRAEAEAFRYALELLAEKFPEQKEYLLDLAEEIESQIRSLSGRDVEDVRKFLDKEWAWVKELLAEHPAELAEVEAARAARLAELRAEVEAKVAA
B26: E16A (designed binder)
chain: MTLQELLREEALRRAAAEAFRYALELLAEKFPEQKEYLLDLAEEIESQIRSLSGVDVEDVRKFLDKEWAWVKELLAEHPAELAEVEAARAARLAELRAEVEAKVAA
B27: G54L (designed binder)
chain: MTLQELLREEALRRAEAEAFRYALELLAEKFPEQKEYLLDLAEEIESQIRSLSLVDVEDVRKFLDKEWAWVKELLAEHPAELAEVEAARAARLAELRAEVEAKVAA
B28: I45P (designed binder)
chain: MTLQELLREEALRRAEAEAFRYALELLAEKFPEQKEYLLDLAEEPESQIRSLSGVDVEDVRKFLDKEWAWVKELLAEHPAELAEVEAARAARLAELRAEVEAKVAA
B29: L3F (designed binder)
chain: MTFQELLREEALRRAEAEAFRYALELLAEKFPEQKEYLLDLAEEIESQIRSLSGVDVEDVRKFLDKEWAWVKELLAEHPAELAEVEAARAARLAELRAEVEAKVAA
B30: V57C (designed binder)
chain: MTLQELLREEALRRAEAEAFRYALELLAEKFPEQKEYLLDLAEEIESQIRSLSGVDCEDVRKFLDKEWAWVKELLAEHPAELAEVEAARAARLAELRAEVEAKVAA
B31: L12Q (designed binder)
chain: MTLQELLREEAQRRAEAEAFRYALELLAEKFPEQKEYLLDLAEEIESQIRSLSGVDVEDVRKFLDKEWAWVKELLAEHPAELAEVEAARAARLAELRAEVEAKVAA
B32: W70S (designed binder)
chain: MTLQELLREEALRRAEAEAFRYALELLAEKFPEQKEYLLDLAEEIESQIRSLSGVDVEDVRKFLDKEWASVKELLAEHPAELAEVEAARAARLAELRAEVEAKVAA
B33: E58G (designed binder)
chain: MTLQELLREEALRRAEAEAFRYALELLAEKFPEQKEYLLDLAEEIESQIRSLSGVDVGDVRKFLDKEWAWVKELLAEHPAELAEVEAARAARLAELRAEVEAKVAA
B34: E5V (designed binder)
chain: MTLQVLLREEALRRAEAEAFRYALELLAEKFPEQKEYLLDLAEEIESQIRSLSGVDVEDVRKFLDKEWAWVKELLAEHPAELAEVEAARAARLAELRAEVEAKVAA

Biological target: T1, TNFR1
Test: yeast display SC50

Going from B1 to B2, the “apparent Kd (screen)” value rises from 0.869 nM to 26.9 nM (31-fold).

Going from B3 to B4, the “apparent Kd (screen)” value rises from 0.539 nM to 9.41 nM (17-fold).

Compared with B5, B6 is 31-fold lower in “apparent Kd (screen)” value: 16.7 nM for the first, 0.539 nM for the second.

Going from B7 to B8, the “apparent Kd (screen)” value rises from 0.593 nM to 6.43 nM (11-fold).

Going from B9 to B10, the “apparent Kd (screen)” value rises from 0.593 nM to 2.25 nM (3.8-fold).

Compared with B11, B12 is 21-fold lower in “apparent Kd (screen)” value: 13.8 nM for the first, 0.653 nM for the second.

B13 and B14 are within 1.5-fold of each other in “apparent Kd (screen)” value: 0.718 nM for the first, 1.05 nM for the second.

B15 and B16 are within 1.5-fold of each other in “apparent Kd (screen)” value: 0.49 nM for the first, 0.593 nM for the second.

Going from B17 to B18, the “apparent Kd (screen)” value falls from 12.5 nM to 2.73 nM (4.6-fold).

Compared with B19, B20 is 2.4-fold lower in “apparent Kd (screen)” value: 5.31 nM for the first, 2.25 nM for the second.

B21 and B22 are within 1.5-fold of each other in “apparent Kd (screen)” value: 0.539 nM for the first, 0.446 nM for the second.

First: B23
Second: B24
The “apparent Kd (screen)” value of the first is 5.1-fold lower: 0.405 nM for the first, 2.05 nM for the second.

Going from B25 to B26, the “apparent Kd (screen)” value falls from 2.48 nM to 0.539 nM (4.6-fold).

Compared with B27, B28 is 73-fold lower in “apparent Kd (screen)” value: 16.7 nM for the first, 0.229 nM for the second.

Compared with B29, B30 is 4.2-fold lower in “apparent Kd (screen)” value: 2.25 nM for the first, 0.539 nM for the second.

Going from B31 to B32, the “apparent Kd (screen)” value rises from 0.79 nM to 12.5 nM (16-fold).

B33 and B34 are within 1.5-fold of each other in “apparent Kd (screen)” value: 0.49 nM for the first, 0.593 nM for the second.
